In US7740882B2, “Enhanced oral and transcompartmental delivery of therapeutic or diagnostic agents” (priority 2001, dated 2010):
Entries after “also recorded” stand apart in the source; their conditions may differ. Read-outs that look alike come from different tables or passages of the source.

Experiments:
[1] = target: T1, fMLF receptor on differentiated HL-60 cells (Homo sapiens, UniProt P21462); experiment: Competitive receptor binding assay with fML[3H]F; conditions: for Avidity Activation EC50/Kd: ratio of EC50 (calcium) to Kd
T1 construct: endogenous in cells; host or cells: HL-60 cells differentiated with 1.3% DMSO for 48 h; whole cells
T1 sequence (P21462 1-350): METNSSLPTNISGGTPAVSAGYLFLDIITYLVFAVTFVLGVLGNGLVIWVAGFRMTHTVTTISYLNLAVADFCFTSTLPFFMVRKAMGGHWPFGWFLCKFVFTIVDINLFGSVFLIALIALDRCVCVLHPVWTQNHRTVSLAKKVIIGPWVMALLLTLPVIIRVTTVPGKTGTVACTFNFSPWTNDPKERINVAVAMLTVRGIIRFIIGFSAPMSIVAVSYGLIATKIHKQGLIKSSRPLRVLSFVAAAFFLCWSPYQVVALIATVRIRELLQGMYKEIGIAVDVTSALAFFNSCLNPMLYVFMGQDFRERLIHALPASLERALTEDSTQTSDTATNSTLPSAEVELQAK

[2] = test system: differentiated HL-60 cells; experiment: Intracellular calcium assay (45Ca release from intracellular stores); type: cell-based, human; conditions: for EC50: differentiated HL-60 cells, calcium release, read-out: Cell Activation EC50
Method: Intracellular Calcium Assay. HL-60 cells (2×10^5 cells/mL) were grown in the presence of 1.3% DMSO for 5 days. For each time course experiment, 2×10^6 cells were resuspended in 5 mL of HBSS containing 2 mCi/mL of ^45CaCl2 as the sole source of calcium. After 90 min incubation at 37° C., cells were washed twice as above with cold HBSS. […] Cell pellets were treated with 0.5% Triton X-100/0.1 M NaOH and centrifuged in tubes containing 0.3 mL of 10% sucrose and radioactivity associated with the pellets was measured; this represents vesicle-associated ^45Ca. The top portion of the tube, which contained the cytoplasmic ^45Ca was also measured.

[3] = target: T2, SMVT in BBMECs (Bos taurus, UniProt A1L530); experiment: Biotin uptake by BBMECs (characterization of biotin transporter); type: in vitro ADME, bovine
T2 construct: endogenous in cells; host or cells: primary bovine brain microvessel endothelial cells (BBMECs)
T2 sequence (A1L530 1-638): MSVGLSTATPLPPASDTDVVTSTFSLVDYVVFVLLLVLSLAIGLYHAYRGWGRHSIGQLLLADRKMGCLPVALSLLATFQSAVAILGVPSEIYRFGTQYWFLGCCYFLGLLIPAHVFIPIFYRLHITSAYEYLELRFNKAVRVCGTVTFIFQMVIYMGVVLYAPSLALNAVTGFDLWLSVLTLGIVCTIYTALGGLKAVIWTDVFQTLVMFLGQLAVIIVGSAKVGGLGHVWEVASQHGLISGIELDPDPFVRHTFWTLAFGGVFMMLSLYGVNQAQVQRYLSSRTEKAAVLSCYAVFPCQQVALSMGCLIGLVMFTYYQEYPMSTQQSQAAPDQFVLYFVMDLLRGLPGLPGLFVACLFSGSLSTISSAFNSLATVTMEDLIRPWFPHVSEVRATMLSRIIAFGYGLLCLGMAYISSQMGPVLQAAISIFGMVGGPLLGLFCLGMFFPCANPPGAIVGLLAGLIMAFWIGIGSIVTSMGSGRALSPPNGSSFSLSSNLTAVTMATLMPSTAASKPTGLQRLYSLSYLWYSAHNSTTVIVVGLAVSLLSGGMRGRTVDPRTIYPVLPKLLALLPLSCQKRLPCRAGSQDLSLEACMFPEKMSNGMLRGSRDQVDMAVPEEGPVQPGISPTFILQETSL

[4] = target: T3, SMVT (Homo sapiens, UniProt Q9Y289); experiment: Inhibition of substrate uptake in CHO/hSMVT cells by 50 μM SMVT substrates; type: in vitro ADME; parameters: expressed in transfected cells; host or cells: CHO cells (ATCC), transient Lipofectamine transfection; plasmid was a gift of Dr. Puttur D. Prasad; conditions: for inhibition of RI-K(biotin)-Tat9 uptake: 0.1 μM RI-K(biotin)-Tat9, inhibitor 50 μM; for inhibition of biotin-PEG-3400 uptake: 0.1 μM biotin-PEG-3400, inhibitor 50 μM; for inhibition of PEG:(RI-K(biotin)-Tat9)8 uptake: 0.1 μM conjugate, inhibitor 50 μM
T3 sequence (Q9Y289 1-635): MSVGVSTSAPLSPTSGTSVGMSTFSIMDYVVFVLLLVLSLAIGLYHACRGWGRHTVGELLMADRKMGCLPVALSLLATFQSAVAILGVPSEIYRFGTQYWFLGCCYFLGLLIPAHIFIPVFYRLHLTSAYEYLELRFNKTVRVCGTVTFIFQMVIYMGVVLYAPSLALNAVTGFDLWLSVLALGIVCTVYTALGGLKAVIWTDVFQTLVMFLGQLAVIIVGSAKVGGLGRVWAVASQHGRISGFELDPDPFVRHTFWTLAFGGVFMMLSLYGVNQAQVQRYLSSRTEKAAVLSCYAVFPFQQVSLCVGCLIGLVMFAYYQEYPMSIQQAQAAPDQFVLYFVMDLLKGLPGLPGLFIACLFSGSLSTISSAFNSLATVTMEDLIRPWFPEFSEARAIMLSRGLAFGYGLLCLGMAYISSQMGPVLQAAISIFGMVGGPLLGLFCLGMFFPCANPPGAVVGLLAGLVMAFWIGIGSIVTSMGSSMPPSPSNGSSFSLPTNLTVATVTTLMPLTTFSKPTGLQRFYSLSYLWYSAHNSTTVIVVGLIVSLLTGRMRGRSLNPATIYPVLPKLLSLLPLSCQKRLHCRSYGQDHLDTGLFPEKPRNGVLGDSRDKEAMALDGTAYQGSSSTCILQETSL

[5] = test system: Caco-2 cell monolayers; experiment: Absorptive (AP to BL) transport across Caco-2 cell monolayers; conditions: Caco-2 AP to BL
Method: (§1) Caco-2 Cell Transport Studies An Ussing-type diffusion chamber system (Harvard Apparatus, Natick, Mass.) was used to perform transport studies. The apical solution was a MES Ringer's buffer (pH 6.5) consisting of 114.0 mM NaCl, 5.0 mM KCl, 1.1 mM MgSO4, 1.25 mM CaSO4, and 15 mM 2-(N-morpholino)ethanesulfonic acid (MES). The basolateral solution was a Ringer's buffer (pH 7.4) consisting of 114.0 mM NaCl, 5.0 mM KCl, 1.65 mM Na2HPO4, 0.3 mM NaH2PO4, 25 mM NaHCO3, 1.1 mM MgSO4, and 1.25 mM CaSO4. Both buffers contained 25 mM glucose and were adjusted to 290 mOsm/kg using a vapor pressure osmometer (Wescor Inc, Logan, Utah). For transport experiments using filters with cell monolayers, the inserts were rinsed with Ringer's buffet containing 25 mM glucose three times over a 20 min period at room temperature. The TEER was measured for each monolayer before it was mounted onto the diffusion chamber, which was pre-warmed to 37° C. by placement on the heating blocks. The volume of each half-chamber was 5 ml and the surface area of the Snapwell™ filters available for drug transport was 1 cm^2. […] The donor solution consisted of radiolabeled permeant in the apical buffer [apical (AP) to basolateral (BL) study]. Starting at 30 min, samples were taken from the receptor chamber every 15 min until the end of the experiment (105 min). A minimum of three monolayers was used to determine the permeability of test compound in each study and sample analysis was performed using scintillation counting (Perkin Elmer, Gaithersburg, Md.).
(§2) The Michaelis-Menten kinetic parameters of Caco-2 and CHO cell transport were then estimated using non-linear regression.
(§3) Prior to experimentation, diffusion chambers mounted with the Snapwells™ containing Caco-2 cells were equilibrated at 5° C., 10° C., 15° C., 25° C. and 37° C.
(§4) [formula] where Pe is the effective permeability of the substrate transported, Cs is the substrate concentration and Pm and Pc represent the passive and carrier-mediated component of the permeability. All data were initially fitted to a 3-parameter model (Pc, Pm, Km for Caco-2 studies, Jmax, Pm, Km for CHO studies).
(§5) Caco-2 Cell Transport Studies An Ussing-type diffusion chamber system (Harvard Apparatus, Natick, Mass.) was used to perform transport studies. The apical solution was a MES Ringer's buffer (pH 6.5) consisting of 114.0 mM NaCl, 5.0 mM KCl, 1.1 mM MgSO4, 1.25 mM CaSO4, and 15 mM 2-(N-morpholino)ethanesulfonic acid (MES). The basolateral solution was a Ringer's buffer (pH 7.4) consisting of 114.0 mM NaCl, 5.0 mM KCl, 1.65 mM Na2HPO4, 0.3 mM NaH2PO4, 25 mM NaHCO3, 1.1 mM MgSO4, and 1.25 mM CaSO4. Both buffers contained 25 mM glucose and were adjusted to 290 mOsm/kg using a vapor pressure osmometer (Wescor Inc, Logan, Utah). For transport experiments using filters with cell monolayers, the inserts were rinsed with Ringer's buffer containing 25 mM glucose three times over a 20 min period at room temperature. The TEER was measured for each monolayer before it was mounted onto the diffusion chamber, which was pre-warned to 37° C. by placement on the heating blocks.

[6] = in vitro; conditions: human, Caco-2
Method: as §1, §2, §3, §4, §5

[7] = substrate: O=C(O)CCCC[C@@H]1SC[C@@H]2NC(=O)N[C@@H]21; experiment: cells, lysate or membranes named; conditions: 37° C.
[8] = Kd multiplied by average number of fMLF moieties, read-out: Relative Avidity Kd/fMLP
[9] = differentiated HL-60 cells, competition with fML[3H]F, read-out: Avidity Kd

B8-PEG-fMLF1.1: 8-arm branched amino-PEG with on average 1.1 fMLF residues per polymer
Kd [1, 8]: 209 nM | Kd [1, 9]: 190 nM | calcium flux ([2]; even at 100 nM polymer): virtually no flux of calcium

B4-PEG-fMLF4: 4-arm branched amino-PEG fully coupled with fMLF
Kd [1, 8]: 3.2 nM | Kd [1, 9]: 0.8 nM | Avidity Activation EC50/Kd [1]: 6.25 | EC50 [2]: 5 nM

B3-PEG-fMLF3: 3-arm branched amino-PEG fully coupled with fMLF
Kd [1, 8]: 5.7 nM | Kd [1, 9]: 1.9 nM | Avidity Activation EC50/Kd [1]: 5.05 | EC50 [2]: 9.6 nM

N[C@@H]1[C@H](CCCCC(=O)O)SC[C@@H]1N [diaminobiotin]
inhibition of biotin uptake [3]: very weak

B8-PEG-fMLF8: 8-arm branched amino-PEG with 8 fMLF residues per polymer
increase in avidity over B8-PEG-fMLF1.1 [1]: more than 1000 fold | Kd [1, 8]: 1.44 nM | fMLF receptors occupied ([1]; at 1 nM): ~100% | Kd [1, 9]: 0.18 nM | Avidity Activation EC50/Kd [1]: 27.8 | cellular activation ([2]; at 1 nM): little or no cellular activation | EC50 [2]: 5 nM

B8-PEG-fMLF5.5: 8-arm branched amino-PEG with on average 5.5 fMLF residues per polymer
Kd [1, 8]: 2.75 nM | Kd [1, 9]: 0.5 nM | Avidity Activation EC50/Kd [1]: 10.6 | EC50 [2]: 5.3 nM

C[C@@H]1NC(=O)N[C@@H]1CCCCCC(=O)O [desthiobiotin]
inhibition of RI-K(biotin)-Tat9 uptake [4]: significantly inhibited; also recorded: significantly lowered (p<0.001) | inhibition of biotin-PEG-3400 uptake [4]: significantly (p<0.01) inhibited | inhibition of PEG:(RI-K(biotin)-Tat9)8 uptake [4]: significantly lower (p<0.05) | inhibition of biotin uptake [3]: inhibited the uptake of biotin significantly

OC[C@@H](O)[C@@H](O)[C@H](O)[C@H](O)CO [mannitol]
absorptive/effective permeability (Pe) [5]: 1.42 (±0.28)×10^−6 cm/sec | Papp A→B at 105 min [6]: 2.12 ×10⁻⁶ cm/s

PEG/A-fMLF4: linear PEG-aspartate copolymer (29 kDa) with four fMLF residues
Kd [1, 8]: 4.4 nM | Kd [1, 9]: 1.1 nM

CC(C)(CO)[C@@H](O)C(=O)NCCC(=O)O [pantothenic acid]
inhibition of RI-K(biotin)-Tat9 uptake [4]: significantly inhibited | inhibition of biotin-PEG-3400 uptake [4]: significantly (p<0.01) inhibited | inhibition of PEG:(RI-K(biotin)-Tat9)8 uptake [4]: significantly lower (p<0.05) | inhibition of biotin uptake [3]: inhibited the uptake of biotin significantly

N=C1N[C@H]2[C@H](CS[C@H]2CCCCC(=O)O)N1 [iminobiotin]
inhibition of biotin uptake [3]: very weak

B1: human sodium dependent multivitamin transporter, hSMVT (Homo sapiens) (protein)
chain: T3 sequence (Q9Y289 1-635)
Km ([7]; other: uptake in CHO/hSMVT cells, 10 min, pH 7.5): 1.39 (0.59) μM

B2: SMVT in BBMECs (Bos taurus) (protein)
chain: T2 sequence (A1L530 1-638)
Km ([7]; other: BBMECs): 54.6 µM
